From article PMC2756588

T1: Bzz1-1, P38822
T1 sequence (P38822 478-572, looked up): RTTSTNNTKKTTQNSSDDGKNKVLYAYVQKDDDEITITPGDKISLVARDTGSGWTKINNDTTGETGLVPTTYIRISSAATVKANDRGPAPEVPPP

T2: Hof1, Q05080
T2 sequence (Q05080 590-669, looked up): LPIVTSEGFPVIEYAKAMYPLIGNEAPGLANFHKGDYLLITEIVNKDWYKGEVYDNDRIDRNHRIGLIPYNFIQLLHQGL

T3: Pex13, P80667
T3 sequence (P80667 295-386, looked up): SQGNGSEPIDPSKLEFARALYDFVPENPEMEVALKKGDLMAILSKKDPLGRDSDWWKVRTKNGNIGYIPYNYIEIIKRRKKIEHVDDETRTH

T4: Bzz1-2, P38822
T4 sequence (P38822 568-633, looked up): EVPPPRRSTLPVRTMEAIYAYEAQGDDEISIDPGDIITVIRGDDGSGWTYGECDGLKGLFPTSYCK

T5: Boi2, P39969
T5 sequence (P39969 32-116, looked up): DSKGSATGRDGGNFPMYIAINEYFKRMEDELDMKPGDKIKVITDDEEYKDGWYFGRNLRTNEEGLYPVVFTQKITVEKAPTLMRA

T6: Hse1, P38753
T6 sequence (P38753 208-285, looked up): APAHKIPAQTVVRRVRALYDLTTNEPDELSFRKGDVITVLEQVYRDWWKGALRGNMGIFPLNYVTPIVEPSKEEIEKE

T7: Pin3, Q06449
T7 sequence (Q06449 53-122, looked up): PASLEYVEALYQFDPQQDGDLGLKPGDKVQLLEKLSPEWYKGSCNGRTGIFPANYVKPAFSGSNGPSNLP

T8: Cyk3, Q07533
T8 sequence (Q07533 1-83, looked up): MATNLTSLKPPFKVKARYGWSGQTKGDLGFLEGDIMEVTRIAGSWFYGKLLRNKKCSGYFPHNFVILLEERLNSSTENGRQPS

T9: Fus1, P11710
T9 sequence (P11710 432-512, looked up): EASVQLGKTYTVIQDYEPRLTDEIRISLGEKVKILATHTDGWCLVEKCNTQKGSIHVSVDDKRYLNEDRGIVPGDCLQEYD

T10: Bbc1, P47068
T10 sequence (P47068 1-78, looked up): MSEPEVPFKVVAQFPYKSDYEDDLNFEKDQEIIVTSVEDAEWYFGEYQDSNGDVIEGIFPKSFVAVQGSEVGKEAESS

T11: Boi1, P38041
T11 sequence (P38041 1-86, looked up): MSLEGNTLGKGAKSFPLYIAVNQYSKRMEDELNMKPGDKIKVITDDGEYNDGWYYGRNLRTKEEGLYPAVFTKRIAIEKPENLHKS

T12: Lsb3, P43603
T12 sequence (P43603 385-451, looked up): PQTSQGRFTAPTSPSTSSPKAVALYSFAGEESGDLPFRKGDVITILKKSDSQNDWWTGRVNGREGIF

T13: Sla1-3, P32790
T13 sequence (P32790 344-424, looked up): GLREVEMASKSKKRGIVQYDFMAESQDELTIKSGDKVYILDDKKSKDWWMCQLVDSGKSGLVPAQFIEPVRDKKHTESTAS

T14: Myo5, Q04439
T14 sequence (Q04439 1072-1160, looked up): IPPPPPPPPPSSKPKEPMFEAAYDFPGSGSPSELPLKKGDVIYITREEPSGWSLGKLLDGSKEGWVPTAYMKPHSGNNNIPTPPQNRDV

T15: Lsb1, P53281
T15 sequence (P53281 45-122, looked up): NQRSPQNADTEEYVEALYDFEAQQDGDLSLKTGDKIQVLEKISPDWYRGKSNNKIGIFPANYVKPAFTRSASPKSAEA

T16: Cdc25, P04821
T16 sequence (P04821 50-136, looked up): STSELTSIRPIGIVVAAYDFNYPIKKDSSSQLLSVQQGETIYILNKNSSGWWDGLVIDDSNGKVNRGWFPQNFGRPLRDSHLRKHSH

T17: Bud14, P27637
T17 sequence (P27637 247-328, looked up): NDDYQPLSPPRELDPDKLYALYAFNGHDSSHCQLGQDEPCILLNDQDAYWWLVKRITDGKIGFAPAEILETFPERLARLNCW

T18: Sla1-2, P32790
T18 sequence (P32790 60-140, looked up): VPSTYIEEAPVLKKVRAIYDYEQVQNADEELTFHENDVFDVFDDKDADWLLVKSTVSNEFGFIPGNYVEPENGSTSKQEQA

T19: Nbp2, Q12163
T19 sequence (Q12163 103-180, looked up): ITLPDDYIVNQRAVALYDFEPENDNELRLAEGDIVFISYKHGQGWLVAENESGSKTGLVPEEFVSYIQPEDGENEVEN

T20: Abp1, P15891
T20 sequence (P15891 535-592, looked up): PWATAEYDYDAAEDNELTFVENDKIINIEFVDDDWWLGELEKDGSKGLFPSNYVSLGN

T21: Lsb4, P32793
T21 sequence (P32793 402-468, looked up): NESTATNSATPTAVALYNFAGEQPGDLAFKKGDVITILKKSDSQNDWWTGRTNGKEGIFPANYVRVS


Key:
Experiment in all cases: SPOT array
Bzz1-1, P38822 = molecular target: T1, Bzz1-1, P38822; conditions: median of control spots 4446
Hof1, Q05080 = molecular target: T2, Hof1, Q05080; conditions: median of control spots 4086
Rvs167, P39743 = conditions: median of control spots 2707
Rvs167, P39743, sequence (P39743 419-482): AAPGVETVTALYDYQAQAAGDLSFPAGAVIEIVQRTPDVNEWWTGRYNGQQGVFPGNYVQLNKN

Pex13, P80667 = molecular target: T3, Pex13, P80667; conditions: median of control spots 1341
Bzz1-2, P38822 = molecular target: T4, Bzz1-2, P38822; conditions: median of control spots 4538
Boi2, P39969 = molecular target: T5, Boi2, P39969; conditions: median of control spots 1161
GST = conditions: median of control spots 978
Hse1, P38753 = molecular target: T6, Hse1, P38753; conditions: median of control spots 1727
Pin3, Q06449 = molecular target: T7, Pin3, Q06449; conditions: median of control spots 2171
Cyk3, Q07533 = molecular target: T8, Cyk3, Q07533; conditions: median of control spots 1451
Fus1, P11710 = molecular target: T9, Fus1, P11710; conditions: median of control spots 1200
Bem1-2, P29366 = conditions: median of control spots 4347
Bem1-2, P29366, sequence (P29366 139-227): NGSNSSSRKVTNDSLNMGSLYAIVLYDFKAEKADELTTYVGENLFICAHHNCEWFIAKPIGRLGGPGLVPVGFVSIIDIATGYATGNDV

Bbc1, P47068 = molecular target: T10, Bbc1, P47068; conditions: median of control spots 796
Bem1-1, P29366 = conditions: median of control spots 4282
Bem1-1, P29366, sequence (P29366 55-141): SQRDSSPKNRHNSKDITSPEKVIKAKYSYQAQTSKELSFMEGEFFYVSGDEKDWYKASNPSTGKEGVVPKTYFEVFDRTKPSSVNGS

Boi1, P38041 = molecular target: T11, Boi1, P38041; conditions: median of control spots 1162
Myo3, P36006 = conditions: median of control spots 468
Lsb3, P43603 = molecular target: T12, Lsb3, P43603; conditions: median of control spots 406
Sla1-3, P32790 = molecular target: T13, Sla1-3, P32790; conditions: median of control spots 5475
Myo5, Q04439 = molecular target: T14, Myo5, Q04439; conditions: median of control spots 471
Lsb1, P53281 = molecular target: T15, Lsb1, P53281; conditions: median of control spots 388
Sho1, P40073 = conditions: median of control spots 1148
Sho1, P40073, sequence (P40073 287-367): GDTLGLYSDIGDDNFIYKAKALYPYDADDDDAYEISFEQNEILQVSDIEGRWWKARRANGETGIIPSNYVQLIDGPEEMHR

Cdc25, P04821 = molecular target: T16, Cdc25, P04821; conditions: median of control spots 969
Bud14, P27637 = molecular target: T17, Bud14, P27637; conditions: median of control spots 956
Sla1-2, P32790 = molecular target: T18, Sla1-2, P32790; conditions: median of control spots 712
Nbp2, Q12163 = molecular target: T19, Nbp2, Q12163; conditions: median of control spots 357
Abp1, P15891 = molecular target: T20, Abp1, P15891; conditions: median of control spots 935
Lsb4, P32793 = molecular target: T21, Lsb4, P32793; conditions: median of control spots 397

Binder | SPOT intensity (Bzz1-1, P38822) | SPOT intensity (Hof1, Q05080) | SPOT intensity (Rvs167, P39743) | SPOT intensity (Pex13, P80667) | SPOT intensity (Bzz1-2, P38822) | SPOT intensity (Boi2, P39969) | SPOT intensity (GST) | SPOT intensity (Hse1, P38753) | SPOT intensity (Pin3, Q06449) | SPOT intensity (Cyk3, Q07533) | SPOT intensity (Fus1, P11710) | SPOT intensity (Bem1-2, P29366) | SPOT intensity (Bbc1, P47068) | SPOT intensity (Bem1-1, P29366) | SPOT intensity (Boi1, P38041) | SPOT intensity (Myo3, P36006) | SPOT intensity (Lsb3, P43603) | SPOT intensity (Sla1-3, P32790) | SPOT intensity (Myo5, Q04439) | SPOT intensity (Lsb1, P53281) | also measured
RMVRRRPLRVQFSAR | 4 | 10 | 3 | 17 | 16 | 12 | 9 | 41 | 70 | 12 | 92 | 27 | 235 | 6 | 14 | 50 | 35 | 128 | 10 | 60 | SPOT intensity (Sho1, P40073): 259; SPOT intensity (Cdc25, P04821): 94; SPOT intensity (Bud14, P27637): 36; SPOT intensity (Sla1-2, P32790): 37; SPOT intensity (Nbp2, Q12163): 104; SPOT intensity (Abp1, P15891): 270; SPOT intensity (Lsb4, P32793): 25
RSVKRPRRAPRPVVS | 0 | 6 | 9 | 0 | 3 | 6 | 4 | 8 | 2 | 12 | 19 | 15 | 377 | 3 | 1 | 11 | 52 | 25 | 1 | 94 | SPOT intensity (Sho1, P40073): 60; SPOT intensity (Cdc25, P04821): 20; SPOT intensity (Bud14, P27637): 12; SPOT intensity (Sla1-2, P32790): 6; SPOT intensity (Nbp2, Q12163): 67; SPOT intensity (Abp1, P15891): 204; SPOT intensity (Lsb4, P32793): 34
QRKSLRRPTLSKPAV | 4 | 4 | 0 | 3 | 16 | 0 | 6 | 10 | 9 | 4 | 2 | 1 | 37 | 0 | 2 | 10 | 3 | 22 | 3 | 32 | SPOT intensity (Sho1, P40073): 116; SPOT intensity (Cdc25, P04821): 7; SPOT intensity (Bud14, P27637): 2; SPOT intensity (Sla1-2, P32790): 3; SPOT intensity (Nbp2, Q12163): 5; SPOT intensity (Abp1, P15891): 78; SPOT intensity (Lsb4, P32793): 3
